Data on one sequence can be found in paper PMC9675756.

For series [1], the target named is A3G-CTD2 (catalytically active soluble variant), MST construct (human) (UniProt Q9HC16). Description: MST. The settings on record: 23 C, apparent Kd, active enzyme hydrates dZ, N at position 6 = 2'-deoxy-zebularine (replaces target C), hydrated to 4-(R)-hydroxy-3,4-dihydro form in the active enzyme, MST: 20 mM Bis-Tris pH 6.5, 100 mM NaCl, 1 mM DTT, 0.002% Tween 20, 50 nM protein, RED-tris-NTA dye, NMR inhibition: 50 mM NaPO4 pH 6.5, 100 mM NaCl ….

Series [2] addresses A3G-CTD2* (catalytically inactive), MST construct E259A (human) (UniProt Q9HC16). Nature of the series: MST. The settings on record: N at position 6 = 2'-deoxy-zebularine (replaces target C); hydrated to 4-(R)-hydroxy-3,4-dihydro form in the active enzyme; MST: 20 mM Bis-Tris pH 6.5, 100 mM NaCl, 1 mM DTT, 0.002% Tween 20, 50 nM protein, RED-tris-NTA dye, 23 C; NMR inhibition: 50 mM NaPO4 pH 6.5, 100 mM NaCl ….

The target in series [3] is A3G-CTD2 (catalytically active), crystal and NMR construct (human) (UniProt Q9HC16). Nature of the series: competitive inhibition of deamination, real-time 1H NMR. The settings on record: N at position 6 = 2'-deoxy-zebularine (replaces target C); hydrated to 4-(R)-hydroxy-3,4-dihydro form in the active enzyme; DTT, 0.002% Tween 20, 50 nM protein, RED-tris-NTA dye, 23 C; NMR inhibition: 50 mM NaPO4 pH 6.5, 100 mM NaCl, 0.00.
Chain of A3G-CTD2 (catalytically active), crystal and NMR construct (human) (Q9HC16 191-384): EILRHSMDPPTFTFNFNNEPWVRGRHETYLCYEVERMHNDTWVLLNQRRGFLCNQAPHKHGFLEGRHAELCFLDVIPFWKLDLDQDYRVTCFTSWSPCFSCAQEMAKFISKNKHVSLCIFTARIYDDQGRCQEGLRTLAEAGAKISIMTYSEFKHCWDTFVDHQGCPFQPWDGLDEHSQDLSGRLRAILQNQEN

Chain of A3G-CTD2* (catalytically inactive), MST construct E259A (human) (Q9HC16 191-384 E259A): as the sequence (Q9HC16 191-384) above, with E69A counted along it

For orientation: Ki means a dissociation constant, usually derived from enzyme kinetics or from competition with a known ligand. A high value points to lower affinity. Consider “AATCCNAAA [5'-AATCCdZAAA (dZ-ssDNA inhibitor)]”, for which the results for the Kd in series [1] and in series [2] were 0.27 µM and 14.3 µM, respectively. In series [3], this sequence showed a Ki of 3.07 µM.
